In article PMC6356362:

Target: recombinant GP of EBOV (Mayinga strain), mucin and TM domains-deleted protein (GP[change] sequence w (Zaire ebolavirus (EBOV), Mayinga strain), Q05320
Experiment: SPR
Conditions: remark: other sources report otherwise

B1: recombinant human surfactant protein D (hSP-D) dodecamers, P35247 21-375 (natural protein)
chain: AEMKTYSHRTMPSACTLVMCSSVESGLPGRDGRDGREGPRGEKGDPGLPGAAGQAGMPGQAGPVGPKGDNGSVGEPGPKGDTGPSGPPGPPGVPGPAGREGPLGKQGNIGPQGKPGPKGEAGPKGEVGAPGMQGSAGARGLAGPKGERGVPGERGVPGNTGAAGSAGAMGPQGSPGARGPPGLKGDKGIPGDKGAKGESGLPDVASLRQQVEALQGQVQHLQAAFSQYKKVELFPNGQSVGEKIFKTAGFVKPFTEAQLLCTQAGGQLASPRSAAENAALQQLVVAKNEAAFLSMTDSKTEGKFTYPTGESLVYSNWAPGEPNDDGGSEDCVEIFTNGKWNDRACGEKRLVVCEF
- Kd: 0.33 nM
- koff: 0.00121 s⁻¹
- kon: 3.65e+06 M⁻¹ s⁻¹
